Paper PMC3833262 (2014)

Biological target: the molecule itself
Experiment: multi-angle light scattering

B1: arrestin-1 (protein)
chain: MAACGKTNKSHVIFKKVSRDKSVTIYLGKRDYVDHVSQVEPVDGVVLVDPELVKGKKVYVTLTCAFRYGQEDIDVMGLTFRRDLYFSRVQVYPPVGAMSVLTQLQESLLKKLGDNTYPFLLTFPDYLPCSVMLQPAPQDVGKSCGVDFEVKAFASDITDPEEDKIPKKSSVRLLIRKVQHAPPEMGPQPSAEASWQFFMSDKPLNLSVSLSKEIYFHGEPIPVTVTVTNNTDKVVKKIKVSVEQIANVVLYSSDYYVKPVASEETQEKVQPNSTLTKTLVLVPLLANNRERRGIALDGKIKHEDTNLASSTIIKEGIDRTVMGILVSYHIKVKLTVSGFLGELTSSEVATEVPFRLMHPQPEDPAKESVQDENLVFEEFARQNLKDTGENTEGKKDEDAGQDE
Kd: 57.5 µM
